Literature values, collected in publication PMC6472649.
Read-outs that look alike come from different tables or passages of the source.

How the values were obtained:
[1] = target: SFLLRN ligand (Homo sapiens); assay: FD-AFM
[2] = target: SFLLRN ligand (Homo sapiens); assay: FD-AFM; remark: listed apart in the source

## PAR1 (from UniProt P25116)
[1]
  Kd: 40 µM
[2]
  Kd: 0.35 µM
